B2: Glucose-6-phosphate dehydrogenase (G6PDH) from Leuconostoc mesenteroides, aggregated (enzyme, UniProt P11411 1-486, looked up)
chain: MVSEIKTLVTFFGGTGDLAKRKLYPSVFNLYKKGYLQKHFAIVGTARQALNDDEFKQLVRDSIKDFTDDQAQAEAFIEHFSYRAHDVTDAASYAVLKEAIEEAADKFDIDGNRIFYMSVAPRFFGTIAKYLKSEGLLADTGYNRLMIEKPFGTSYDTAAELQNDLENAFDDNQLFRIDHYLGKEMVQNIAALRFGNPIFDAAWNKDYIKNVQVTLSEVLGVEERAGYYDTAGALLDMIQNHTMQIVGWLAMEKPESFTDKDIRAAKNAAFNALKIYDEAEVNKYFVRAQYGAGDSADFKPYLEELDVPADSKNNTFIAGELQFDLPRWEGVPFYVRSGKRLAAKQTRVDIVFKAGTFNFGSEQEAQEAVLSIIIDPKGAIELKLNAKSVEDAFNTRTIDLGWTVSDEDKKNTPEPYERMIHDTMNGDGSNFADWNGVSIAWKFVDAISAVYTADKAPLETYKSGSMGPEASDKLLAANGDAWVFKG
notes: glucose-6-phosphate dehydrogenase, Leuconostoc mesenteroides; Thermally denatured and aggregated before the co-sedimentation assay; native G6PDH served as the control that was subtracted; also called G6PDH aggregates; source: bought: Worthington

Columns and labels:
[1] = target: the molecule itself; assay: static light scattering; 15 µM DNAJA2 in refolding buffer (20 mM Hepes-KOH pH 7.6, 50 mM KCl, 5 mM MgCl2, 2 mM DTT) heated to 40 °C and cooled back to 25 °C; oligomers to dimers
[2] = target: B2; assay: co-sedimentation; 2 µM Hsc70, 1 µM J-domain protein (DNAJB1, DNAJA2ΔCD or DNAJA2wt), 0.4 µM Apg2, 0.4 µM aggregated or native G6PDH; pellets on SDS-PAGE, band intensities; amounts in pellets with native G6PDH subtracted; conditions: both partners purified
Hsc70wt = target: T1, Hsc70wt (human, UniProt P11142 1-646); assay: as above; conditions: both partners purified
T1 construct: Hsc70 (HSPA8), the constitutively expressed Hsp70 isoform, cDNA from Addgene; also called HSPA8
T1 sequence (P11142 whole entry, canonical isoform): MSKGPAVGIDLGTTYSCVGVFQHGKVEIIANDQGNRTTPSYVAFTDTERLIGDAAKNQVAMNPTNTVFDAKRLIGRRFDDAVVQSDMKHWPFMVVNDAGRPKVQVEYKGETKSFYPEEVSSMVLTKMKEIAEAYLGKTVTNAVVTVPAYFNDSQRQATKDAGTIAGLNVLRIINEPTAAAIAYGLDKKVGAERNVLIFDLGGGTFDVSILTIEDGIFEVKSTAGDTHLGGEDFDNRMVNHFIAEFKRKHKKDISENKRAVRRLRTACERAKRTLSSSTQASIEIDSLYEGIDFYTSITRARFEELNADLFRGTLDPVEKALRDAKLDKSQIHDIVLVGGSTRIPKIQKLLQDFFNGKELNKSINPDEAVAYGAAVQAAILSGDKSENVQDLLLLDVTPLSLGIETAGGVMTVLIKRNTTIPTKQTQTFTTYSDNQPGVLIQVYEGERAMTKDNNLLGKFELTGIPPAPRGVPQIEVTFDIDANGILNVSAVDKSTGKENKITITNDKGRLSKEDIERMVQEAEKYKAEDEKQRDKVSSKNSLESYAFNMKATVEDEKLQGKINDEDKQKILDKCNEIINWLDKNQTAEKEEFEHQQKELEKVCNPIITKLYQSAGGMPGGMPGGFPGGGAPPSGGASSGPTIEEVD

[3] = target: the molecule itself; assay: cross-linking; 2 µM protein, 0.005% glutaraldehyde, 15 min at 4 °C in 20 mM Hepes pH 7.6, 50 mM KCl, 5 mM MgCl2, 2 mM DTT; SDS-PAGE, Coomassie; monomer, dimer and oligomer bands
[4] = target: the molecule itself; assay: negative-stain electron microscopy; samples on carbon-coated grids, 2% uranyl acetate; 15 µM protein; tubular oligomers of dimers
[5] = target: the molecule itself; assay: dynamic light scattering; 30 µM protein in 20 mM Hepes-KOH pH 7.6, 50 mM KCl, 2 mM DTT; volume-based size distributions; the wt also with 300 mM NaCl, 5% 1,6-hexanediol or at 40 °C, which shift it to smaller particles; self-association: dimer and dimers to larger oligomers

B1: DNAJA2wt (natural protein)
chain: not shown
notes: DNAJA2, human class A J-domain protein; last residue Q412; Dimers that assemble into tubular oligomers; For cryo-EM and XL-MS the sample was cross-linked with BS3; The Ni-NTA-Nanogold is said to label Hsc70 specifically, so the His6-SUMO tag was probably removed; also called DnaJ2A
- t1/2 of the temperature-induced dissociation of the oligomers (40 °C) [1]: 2.3 min
- fold reduction of the aggregate-bound amount against DNAJB1 [2]: ~2 fold

Binder: B2
- binding result (Hsc70wt): binds

B3: DNAJA2ΔCD (domain or fragment)
chain: not shown
notes: DNAJA2, human, lacking the disordered C-terminal domain (deletion of residues 361 to 412, V361 to Q412)
- stoichiometry N [3]: 2
- binding result [2]: binds

B4: DNAJA2LQ (natural protein)
chain: not shown
notes: DNAJA2, human, with L135 and Q136 in the CTDI mutated to Glu
- stoichiometry N [3]: ≤ 2

B5: DNAJA2ΔG/FR (natural protein)
chain: not shown
notes: DNAJA2, human, lacking the glycine/phenylalanine-rich region (deletion of residues 77 to 101); For cryo-EM and XL-MS the sample was cross-linked with BS3; also called DnaJA2∆G/FR; DnJA2ΔG/FR
- binding result [4]: binds

B6: DNAJA2ΔZFLR (natural protein)
chain: not shown
notes: DNAJA2, human, lacking the Zn-finger-like region (deletion of residues 141 to 209)
- stoichiometry N [3]: ≤ 2
- stoichiometry N [5]: 2

Reference: PMC10480186, “The self-association equilibrium of DNAJA2 regulates its interaction with unfolded substrate proteins and with Hsc70” (Nature Communications, 2023)
